The data set concerns the molecule itself. The data set is described as follows: cross-linking; in vitro chemical cross-linking of HrcA and HspR proteins with formaldehyde (Figure S2).

B1: His-tagged HrcA (C. jejuni) (natural protein, UniProt Q9PPG2 1-264, looked up)
chain: MMKSRDKKDLILESIIQTYLLDNAPIGSNELNSNLCIPASTIRVYLKRLSDEGLITQLHISSGRIPTILTMQNYWQNFWEKEQDKNIHIKNESFLKELSKEFEIYCLVYGGRSLVLKEVLDLNTKFIVLDFEDEELVLKYEKEAWNFLQSLIGLDLSSIEKIALRVHFIDLVEKIASLRQNLICYRSNEERAYQIYQNDEFVKLLDCQIHRHFKESLEFEPLFKEGFMGLKVDAQFLGEDVNIILAGSVYTDYKKILQYIKEAA
notes: HrcA heat-shock transcriptional repressor of Campylobacter jejuni; it could also have been GST-HrcA; also called His-HrcA; recombinant HrcA protein; source: E. coli BL21 (DE3), pET15b-hrcA, purified (Ni2+-NTA)
Turning to B1, the “stoichiometry N” value was 2.

B2: His-tagged HspR (C. jejuni) (natural protein, UniProt Q0P926 1-124, looked up)
chain: MEQHYDEPVYLISVVAKVLSIHPQTLRQYEREGLIEPSRTDGKIRLYSQRDIDRIKLILRLTRDMGINLAGVDVILKLKNQLHEFENLIDELRLELSKQQDKEAASKAVVKHKNSFDLIFYEKK
notes: HspR heat-shock transcriptional repressor of Campylobacter jejuni; Probably strain NCTC11168, the only C. jejuni strain named; also called His-HspR; recombinant His-tagged HspR; source: E. coli BL21 (DE3), pET15b-hspR, purified (Ni2+-NTA)
As for B2, the “stoichiometry N” value came out at 2.

In general, stoichiometry N refers to a count of units in the complex or per binding partner.

These data come from PMC7464140, “Cooperative Regulation of Campylobacter jejuni Heat-Shock Genes by HspR and HrcA” (Microorganisms, 2020).
